Results taken from US20220242939A1 (BIOARCTIC, published 2022).
Non-standard residues stand in square brackets, D forms with d. No end group written: not given here. Ahx = NCCCCCC(=O)O

T1: L198 N-terminal neo-epitope peptide LAGQPLQE-Acp-C (SEQ ID NO:54) conjugated to BSA (human, not fully specified (residue 10); printed as LAGQPLQE-Acp-C; also: C-terminal Cys conjugated to BSA carrier)
T1 construct: BSA carrier
T1 peptide: LAGQPLQE[Ahx]C

T2: L198 N-terminal neo-epitope peptide LAGQPL-Acp-C (SEQ ID NO:52) conjugated to BSA (human, not fully specified (residue 8); printed as LAGQPL-Acp-C; also: C-terminal Cys conjugated to BSA carrier)
T2 construct: BSA carrier; also called L198-BSA peptide
T2 peptide: LAGQPL[Ahx]C


Experiments:
[1] = biological target: 6F4, monoclonal anti-L198 antibody; experiment: inhibition ELISA; antibody at 0.05 ug/ml pre-incubated with the peptide in solution (4-fold dilutions from 10000 ng/ml), then on a plate coated with L198-BSA peptide; blank reduced OD 405 nm
Description: (§1) 0.5 μg/ml solution of N-terminal neo-epitope peptide L198 (SEQ ID NO:52) conjugated to BSA was prepared by dilution in PBS. 50 μl/well were added to an ELISA half-area 96 well microtiter plate, the plate was sealed with adhesive sealer and incubated over night at 4° C. After discarding the solution, the plates were blocked with protein-free blocking solution (Pierce) (150 μl/well) at room temperature for 90 min with shaking (900 rpm). The blocked plate was washed four times with washing buffer containing 0.28 mM NaH₂PO₄, 2.5 mM Na₂HPO₄, 150 mM NaCl, 0.1% TWEEN®-20 and 0.0075% Kathon CG.
(§2) Serial dilutions of each synthetic ApoE peptide were prepared by 4-fold dilution starting from 10000 ng/ml in 96 well storage plates (30 μl final volume). Each recombinant antibody to be tested was added (30 μl) to the serial dilutions of each of the synthetic ApoE peptides at a final concentration of 0.05 μg/ml per well. Samples were pre-incubated for 45 min at room temperature with shaking (900 rpm).
(§3) The pre-incubated samples were transferred (50 μl/well) to the blocked ELISA plates, and plates were incubated for 10 min at room temperature without shaking. Plates were washed as described above. Alkaline phosphatase conjugated anti-mouse IgG detection antibody (Mabtech, cat. no. 3310-4) was diluted 1:1000 and added to each plate (50 μl/well). The plate was sealed and incubated with shaking (900 rpm) for 45 min at room temperature and subsequently washed as described above. Alkaline phosphatase substrate (50 μl/well) was added to the plate and the optical density was read every 10 min at a wavelength of 405 nm for up to 120 min. The IC50 values were determined from a log inhibitor concentration response curve (FIG. 25).

[2] = biological target: 23D5, recombinant IgG2c antibody; experiment: inhibition ELISA, second protocol; antibody at 0.05 ug/ml pre-incubated with the peptide in solution (4-fold dilutions from 10000 ng/ml), then on a plate coated with G200-BSA peptide; blank reduced OD 405 nm
Description: as §2, with “[…]” for “Serial”, “peptide, recombinant C-terminal ApoE fragment G200-HIS and full-length ApoE4” for “peptide”, “1000” for “10000”, “peptides, G200-HIS or full-length ApoE4” for “peptides”
as §3, with “for 25” for “for 10”, “every 15” for “every 10”, “(FIG. 17).” for “(FIG. 25).”
(§4) In addition, a second inhibition ELISA with the ApoE peptides conjugated to BSA was run, in which the starting concentration of the antigens in solution was increased 10-fold. i.e. the starting concentration of the N-terminal neo-epitope of synthetic ApoE peptides conjugated to BSA and starting at amino acid L198 (SEQ ID NO:52), A199 (SEQ ID NO:51) or G200 (SEQ ID NO:50), or to BSA-conjugated negative control peptide (SEQ ID NO:53), was 10000 ng/ml. Furthermore, a 4-fold serial dilution of antigen was used, the plates were blocked with protein-free blocking solution (Pierce) for 90 min, the pre-incubated samples were incubated on the coated plates for 10 min (instead of 25 min), and the optical density was read every 10 min (instead of every 15 min). IC50 values were determined from a log inhibitor concentration response curve (FIG. 20).

[3] = biological target: 17G4, recombinant IgG2c antibody; experiment: as above
Description: as §2, with “[…]” for “Serial”, “peptide, recombinant C-terminal ApoE fragment G200-HIS and full-length ApoE4” for “peptide”, “1000” for “10000”, “peptides, G200-HIS or full-length ApoE4” for “peptides”
as §3, with “for 25” for “for 10”, “every 15” for “every 10”, “(FIG. 17).” for “(FIG. 25).”
as §4

[4] = biological target: T3, 7B10, recombinant IgG2c antibody; experiment: as above
T3 construct: also called 7610
Description: as §2, with “[…]” for “Serial”, “peptide, recombinant C-terminal ApoE fragment G200-HIS and full-length ApoE4” for “peptide”, “1000” for “10000”, “peptides, G200-HIS or full-length ApoE4” for “peptides”
as §3, with “for 25” for “for 10”, “every 15” for “every 10”, “(FIG. 17).” for “(FIG. 25).”
as §4

[5] = biological target: 7C7, recombinant IgG2c antibody; experiment: as above
Description: as §2, with “[…]” for “Serial”, “peptide, recombinant C-terminal ApoE fragment G200-HIS and full-length ApoE4” for “peptide”, “1000” for “10000”, “peptides, G200-HIS or full-length ApoE4” for “peptides”
as §3, with “for 25” for “for 10”, “every 15” for “every 10”, “(FIG. 17).” for “(FIG. 25).”
as §4

[6] = biological target: 38G9, monoclonal anti-A199 antibody; experiment: inhibition ELISA: antigen in solution varied, antibody 38G9 at 0.05 µg/ml, plate coated with A199-BSA peptide
Description: as §1, with “A199” for “L198”, “NO:51)” for “NO:52)”
as §2, with “purified monoclonal” for “recombinant”, “Samples were pre-incubated for 45 min at room temperature with shaking (900 rpm).” left out
(§5) The pre-incubated samples were transferred (50 μl/well) to the blocked ELISA plates, and plates were incubated for 10 min at room temperature without shaking. […] Alkaline phosphatase substrate (50 μl/well) was added to the plate and the optical density was read every 10 min at a wavelength of 405 nm for up to 120 min. The IC50 values were determined from a log inhibitor concentration response curve (FIG. 29).

[7] = biological target: 67G3, monoclonal anti-A199 antibody; experiment: inhibition ELISA: antigen in solution varied, antibody 67G3 at 0.05 µg/ml, plate coated with A199-BSA peptide
Description: as §1, with “A199” for “L198”, “NO:51)” for “NO:52)”
as §2, with “purified monoclonal” for “recombinant”, “Samples were pre-incubated for 45 min at room temperature with shaking (900 rpm).” left out
as §5

[8] = biological target: 36A12, monoclonal anti-A199 antibody; experiment: inhibition ELISA: antigen in solution varied, antibody 36A12 at 0.05 µg/ml, plate coated with A199-BSA peptide
Description: as §1, with “A199” for “L198”, “NO:51)” for “NO:52)”
as §2, with “purified monoclonal” for “recombinant”, “Samples were pre-incubated for 45 min at room temperature with shaking (900 rpm).” left out
as §5

[9] = biological target: 63F6, monoclonal anti-A199 antibody; experiment: inhibition ELISA: antigen in solution varied, antibody 63F6 at 0.05 µg/ml, plate coated with A199-BSA peptide
Description: as §1, with “A199” for “L198”, “NO:51)” for “NO:52)”
as §2, with “purified monoclonal” for “recombinant”, “Samples were pre-incubated for 45 min at room temperature with shaking (900 rpm).” left out
as §5

[10] = biological target: T4, recombinant C-terminal ApoE fragment L198-HIS (ApoE-L198-H299-10xHIS) (human, UniProt P02649 216-317); experiment: direct ELISA, L198-HIS coated at 0.1 µM
T4 construct: also called L198-HIS fragment
Description: (§6) Selectivity evaluation of purified monoclonal antibodies by direct ELISA: The direct ELISA described below was used to evaluate the binding selectivity of the purified monoclonal antibodies produced in Example 14.
(§7) The screening was performed according to standard ELISA protocols. Briefly, 1 μg/ml solutions of BSA-conjugated neo-epitope peptides and negative control peptide, and 0.1 μM recombinant C-terminal ApoE fragment and full-length ApoE (Abcam, cat. no. ab50243) were prepared by dilution in PBS. 50 μl/well were added to an ELISA half-area 96 well microtiter plate, and the plate was sealed with adhesive sealer and incubated over night at 4° C. After discarding the solution, the plates were blocked with 150 μl/well of protein-free blocking solution (Pierce) for 1 h at room temperature with shake (600-900 rpm). The plates were washed four times with washing buffer containing 0.28 mM NaH₂PO₄, 2.5 mM Na₂HPO₄, 150 mM NaCl, 0.1% TWEEN®-20 and 0.0075% Kathon CG. Purified monoclonal antibodies of interest were 3-fold serially diluted with a starting dilution at 3 μg/ml (mixed 1:2 with dilution buffer (PBS with 0.1% BSA and 0.05% TWEEN®-20)). An anti-ApoE C-terminal antibody was used as a reference antibody (ApoE E-8 mouse monoclonal, Santa Cruz Biotechnology, cat. no. sc-393302). 50 μl/well were added into the ELISA plates and incubated for 2 h at room temperature with shake (600-900 rpm). The plates were washed four times as described previously. […] After another wash (as described previously), 50 μl/well of K-Blue® aqueous substrate (Neogen) were added, and the reaction was stopped after 5-15 min with 50 μl/well of 0.5 M […]. The optical density at 450 nm was read using an ELISA reader (Tecan).

[11] = biological target: T4, recombinant C-terminal ApoE fragment …; experiment: SPR (Biacore 8K), L198-HIS amine-coupled on CM5, antibody as analyte, bivalent analyte fit (kd1)
Description: (§8) Selectivity evaluation and KD determination of purified monoclonal antibodies by surface plasmon resonance: Binding interactions between the antigens and antibodies were evaluated by surface plasmon resonance (SPR) using a Biacore 8K instrument (GE Healthcare) according to standard procedures.
(§9) Selectivity evaluation and KD determination of purified monoclonal antibodies by surface plasmon resonance: The five purified monoclonal antibodies 6F4, 8B3, 12B1, 15F8 and 15H11 were evaluated for selectivity, and KD values for the target antigen were determined by surface plasmon resonance.

[12] = biological target: T5, full-length ApoE in human brain extract from Alzheimer's disease patients (human, UniProt P02649 19-317); experiment: Western blot of AD brain RIPA 2% SDS extract; monoclonal antibody at 2 ug/ml as primary antibody
T5 construct: mature; Endogenous protein on Western blot or in solution (IP); also called ApoE full-length protein

[13] = biological target: T1, L198 N-terminal neo-epitope peptide …; experiment: direct ELISA after limiting dilution
[14] = biological target: T2, L198 N-terminal neo-epitope peptide …; experiment: direct ELISA, L198-BSA peptide coated at 1 µg/ml
Description: as §6, §7

[15] = biological target: T4, recombinant C-terminal ApoE fragment …; experiment: SPR (Biacore 8K), L198-HIS amine-coupled on CM5, antibody as analyte, bivalent analyte fit (KD1)
Description: as §8, §9

[16] = biological target: T4, recombinant C-terminal ApoE fragment …; experiment: SPR (Biacore 8K), L198-HIS amine-coupled on CM5, antibody as analyte, bivalent analyte fit (ka1)

T4 sequence (P02649 other isoform, or with tags, fused parts or gaps limits assumed): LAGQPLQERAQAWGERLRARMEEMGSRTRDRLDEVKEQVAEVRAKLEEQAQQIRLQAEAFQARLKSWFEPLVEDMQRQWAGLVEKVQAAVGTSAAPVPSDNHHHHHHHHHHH
36A12, monoclonal anti-A199 antibody, sequence (VH, as listed by the source, chain 1 of 2): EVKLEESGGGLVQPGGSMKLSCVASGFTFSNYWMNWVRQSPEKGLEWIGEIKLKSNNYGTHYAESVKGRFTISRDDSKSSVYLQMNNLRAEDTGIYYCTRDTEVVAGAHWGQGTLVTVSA
36A12, monoclonal anti-A199 antibody, sequence (VL, as listed by the source, chain 2 of 2): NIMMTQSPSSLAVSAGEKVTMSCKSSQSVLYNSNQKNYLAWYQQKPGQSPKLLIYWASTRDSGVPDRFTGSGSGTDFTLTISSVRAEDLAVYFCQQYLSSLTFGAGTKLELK
23D5, recombinant IgG2c antibody, sequence (VH, as listed by the source, chain 1 of 2): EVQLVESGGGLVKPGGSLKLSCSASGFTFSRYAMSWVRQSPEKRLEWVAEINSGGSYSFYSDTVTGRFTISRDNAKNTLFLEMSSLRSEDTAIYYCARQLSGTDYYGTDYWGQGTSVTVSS
23D5, recombinant IgG2c antibody, sequence (VL, as listed by the source, chain 2 of 2): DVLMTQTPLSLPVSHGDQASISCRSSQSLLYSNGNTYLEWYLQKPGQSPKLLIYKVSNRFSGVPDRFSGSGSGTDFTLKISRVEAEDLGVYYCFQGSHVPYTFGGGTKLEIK
T3 sequence (VH, as listed by the source, chain 1 of 2): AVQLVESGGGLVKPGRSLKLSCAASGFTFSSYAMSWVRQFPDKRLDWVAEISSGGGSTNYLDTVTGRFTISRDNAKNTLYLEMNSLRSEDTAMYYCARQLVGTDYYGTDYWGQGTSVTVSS
T3 sequence (VL, as listed by the source, chain 2 of 2): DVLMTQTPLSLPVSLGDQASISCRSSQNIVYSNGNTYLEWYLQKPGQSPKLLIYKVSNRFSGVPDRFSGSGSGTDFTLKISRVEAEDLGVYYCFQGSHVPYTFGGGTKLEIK
67G3, monoclonal anti-A199 antibody, sequence (VH, as listed by the source, chain 1 of 2): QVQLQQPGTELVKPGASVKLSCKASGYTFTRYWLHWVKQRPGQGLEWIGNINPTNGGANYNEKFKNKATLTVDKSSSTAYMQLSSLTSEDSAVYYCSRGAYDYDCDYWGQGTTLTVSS
67G3, monoclonal anti-A199 antibody, sequence (VL, as listed by the source, chain 2 of 2): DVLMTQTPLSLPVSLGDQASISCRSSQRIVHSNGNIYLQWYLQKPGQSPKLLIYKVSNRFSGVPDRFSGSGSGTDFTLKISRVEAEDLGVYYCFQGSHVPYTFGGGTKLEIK
63F6, monoclonal anti-A199 antibody, sequence (VH, as listed by the source, chain 1 of 2): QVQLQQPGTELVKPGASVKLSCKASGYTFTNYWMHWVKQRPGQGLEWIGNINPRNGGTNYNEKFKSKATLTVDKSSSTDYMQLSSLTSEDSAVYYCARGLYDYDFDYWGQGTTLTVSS
63F6, monoclonal anti-A199 antibody, sequence (VL, as listed by the source, chain 2 of 2): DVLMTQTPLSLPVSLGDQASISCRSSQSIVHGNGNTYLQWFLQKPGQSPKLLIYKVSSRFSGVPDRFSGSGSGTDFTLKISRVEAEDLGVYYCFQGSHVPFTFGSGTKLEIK
T5 sequence (P02649 19-317): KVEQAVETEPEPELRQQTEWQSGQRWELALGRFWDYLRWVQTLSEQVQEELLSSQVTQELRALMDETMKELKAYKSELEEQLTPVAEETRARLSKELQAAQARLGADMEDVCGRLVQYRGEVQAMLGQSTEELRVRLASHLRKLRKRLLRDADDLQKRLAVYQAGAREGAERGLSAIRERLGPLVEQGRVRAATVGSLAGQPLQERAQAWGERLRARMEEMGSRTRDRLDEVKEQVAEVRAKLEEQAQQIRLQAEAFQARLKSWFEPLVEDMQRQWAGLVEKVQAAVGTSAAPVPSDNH
6F4, monoclonal anti-L198 antibody, sequence (VH, as listed by the source, chain 1 of 2): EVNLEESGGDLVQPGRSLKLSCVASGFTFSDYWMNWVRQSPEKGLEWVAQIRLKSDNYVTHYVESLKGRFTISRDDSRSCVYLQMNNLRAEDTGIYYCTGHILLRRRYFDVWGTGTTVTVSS
6F4, monoclonal anti-L198 antibody, sequence (VL, as listed by the source, chain 2 of 2): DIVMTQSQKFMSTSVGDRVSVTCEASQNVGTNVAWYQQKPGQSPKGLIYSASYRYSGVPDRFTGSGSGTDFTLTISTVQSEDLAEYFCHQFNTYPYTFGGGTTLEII
38G9, monoclonal anti-A199 antibody, sequence (VH, as listed by the source, chain 1 of 2): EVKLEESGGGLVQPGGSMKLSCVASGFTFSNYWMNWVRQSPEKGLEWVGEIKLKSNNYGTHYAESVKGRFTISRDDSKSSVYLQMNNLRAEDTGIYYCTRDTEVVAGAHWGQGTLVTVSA
38G9, monoclonal anti-A199 antibody, sequence (VL, as listed by the source, chain 2 of 2): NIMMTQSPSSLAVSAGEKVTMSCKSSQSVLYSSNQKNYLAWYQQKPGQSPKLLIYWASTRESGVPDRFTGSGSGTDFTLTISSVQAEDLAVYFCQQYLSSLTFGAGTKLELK
17G4, recombinant IgG2c antibody, sequence (VH, as listed by the source, chain 1 of 2): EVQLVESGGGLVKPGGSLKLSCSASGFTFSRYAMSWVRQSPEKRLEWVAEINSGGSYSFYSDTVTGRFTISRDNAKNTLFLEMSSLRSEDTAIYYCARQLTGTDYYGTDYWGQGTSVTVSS
7C7, recombinant IgG2c antibody, sequence (VH, as listed by the source, chain 1 of 2): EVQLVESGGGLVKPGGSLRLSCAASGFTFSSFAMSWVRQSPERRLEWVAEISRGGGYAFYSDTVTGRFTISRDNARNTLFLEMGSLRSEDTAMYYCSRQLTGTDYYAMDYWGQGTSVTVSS
7C7, recombinant IgG2c antibody, sequence (VL, as listed by the source, chain 2 of 2): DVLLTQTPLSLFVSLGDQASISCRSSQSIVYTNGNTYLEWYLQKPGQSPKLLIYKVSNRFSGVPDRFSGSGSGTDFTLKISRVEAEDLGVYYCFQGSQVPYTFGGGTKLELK

Row | binding result [1] | binding result [2] | binding result [3] | binding result [4] | binding result [5] | IC50 [6] [ng/mL] | IC50 [7] [ng/mL] | IC50 [8] [ng/mL] | IC50 [9] [ng/mL] | EC50 [10] [ng/mL] | koff [11] [s⁻¹] | binding result [12] | binding result [13] | EC50 [14] [ng/mL] | Kd [15] [nM] | kon [16] [M⁻¹ s⁻¹] | Binder
1 | no binding (tested: 10000 ng/ml) | no binding (tested: 10000 ng/ml) | no binding (tested: 10000 ng/ml) | no binding (tested: 10000 ng/ml) | no binding (tested: 10000 ng/ml) | 52.6 | 2.9 | 27.7 | 2.5 |  |  |  |  |  |  |  | AGQPLQ[Ahx]C (not fully specified (residue 8); printed as AGQPLQ-Acp-C; also: C-terminal Cys conjugated to BSA carrier, BSA carrier; also called A199-BSA peptide) [A199 N-terminal neo-epitope peptide AGQPLQ-Acp-C (SEQ ID NO:51) conjugated to BSA]
2 |  |  |  |  |  |  |  |  |  | 1.3 | 0.000302 | no binding (tested: 2 ug/ml (text)) | binds | 8.4 | 12 | 42000 | 8B3, monoclonal anti-L198 antibody (antibody, IgG2b, V domains shown) VH: EVKVEESGGGVVQPGGSMKLSCLASGFTFRNYWMNWVRQSPEKGLEWVAQIRLKSDNYATRYAESVKGRFTISRDDSKSSVYLQMNNLRAEDTGTYYCSGHILLRYYALDFWGQGTSVTVSS VL: DIVLTQSQKFMSTSVGDRVSVTCKASQNVYTDVAWYQQKPGQSPKGMIYSASYRYSGVPDRFTGSGSGTDFTLKISNVQSEDLAEYFCQQYNSFPYTFGGGTKLEIK
